Assay: soluble on expression in E. coli; label from the status in PepcDB or PDB records

Row | Sequence | soluble on expression in E. coli
1 | MAHHHHHHMAWTVHEDEYRTEGYDNLEEILQYVVHTEESVQQSKPTVKYTKSSQVFATPSPLTAAELSSPIKHQLTNTVPWQPQSHTPTNSSFHSLGIPYTSAQSPQQRRCNNRFNGSYSGQCDRKPKIMSSSETCILSPGARKRGMGTGQMDHMMATELNEMPMPELITQEVLASKDMMVGGGYSDWSGSGSKYFQSGALTADSLRGRVYETAKDQHGCRYLQRWLDTNCDPEALQVMMNEIIPHVGELMTDQYANFLIQKLFDIMPDDVRYKVAIVAAPQICMISLTPHGTFSVQKMIETISTREEMEIISEALCKDVVRLVKDAHGNHVIQKVLQRFDFDDKEYIYRAVATDCVSIAKNKQGCCVLQRCLEHASPRQKAALVDQVLACCLQIVQDPFGNYVLQYVLEEHDSKINDTIALAFLPHLVQLSMNKFSSNVMEKVLRGASGPVQVMYMEEMCNPEIISHLIQDDYGNYVLQTALTINAPVQAAQLVNVIRPFMPLIRNAPYAKKMEGKMENVARKVECNHFHAPRDCEVDARQGSSGGSPHGKFDRSPNHGRHYVGGTDQQQPYNHPT | not soluble
2 | MAHHHHHHMCADGVDKVPDETDNRETNEKKRPKRKRRYIDIDKMNFDFEEEDFASSSNEELVRRNYVNEEEYTGGYANGYTNEHMNGLPYQKDINMNSEVIRGLLEPPPIPFNDTFQKYNREISDVYVKQKKKSSGTLNIFLESQLLCIDEGAFEKENNFINNHFDNFIMRKLNVVNTTNMQDTTNQNKDLQELLKYLMSWYFSGFYSGRVSMLKELHGE | soluble
3 | MAHHHHHHMCLSTCLLYLKQIREDSQYVIISRIDHKTCYKCISFCNLKYFVVDMIYKNEELYTDLEGIEKLLEEYKEKICCVMSATSVYAPRNSDDIIKIAHICKKYNTPHIINNAFGLQCTYICKEIQKCFESQGRVDFVVQSCDKNFLVPVNGGIIFSSNREQMKLLKKSYPGRTPVNAYLDLFITLLEMGKDKIMNLRKERVDNFNWLKEKIQLLCLKYNLELIKTSKNFISMAINLNHMYTHCNTDNPKVINMLGSMLFYRNVTGHRVICSPLLNRNYLLKKAREKYMNMLENKKGNDAMMITSNESNEENVKRDLSKKEADIYDNMYSNGFDEIKSVENDMLQNKSNIIKAYEKQIEEEFDKLNEPNTIVIGNHKFKNFGSSYNSYPISYIAFSCVVGIERPELENFVSKLDNAIDYFIKFFKKKKEEELK | not soluble
4 | MAHHHHHHMCVKCLFLARSEMAIEESACNDDSQAVTEATSERTVNSATVFRYPFNTMDLGWLVGYIDAFLVKSERWAAAMRLTTCFMTFTVLHEDPLMEDATFQLHKTMLDRSIKKSWPRRNRDLSNTFDAAYHVFETICIVSKYPNLDPAGKAGILRMSEKLIQGMEKPMDNVVIKIDLKKKSETLHATLARLQALGRAPESLSAFDALMASLKMVFFCYVASLGINNMMLDANLNKMDSYVCCEGCPCHAKLRTTYTLFIRDVEKTKVIDCLLIMAVKEDDAFLSKLAEGLFTQFDCRSPFLEKPVRRIQNGALFMVRIALFDAFRHVKALLVDLRASPASLAPQIDNVVLALYIARREMRGMKGLNEHLPLVNKALATADSIYSRLGTENASQELRTLKDYITKIFFLVSAPEFHLAVHSKDPLVGKGAKLCCGNPDCPGKVKEMLKCSGCRVTFYCSVTCQRDDWKTHRFLCKEMGCRKAAPAPIKMAECSTETLKPAAFHG | not soluble
5 | MAHHHHHHMCVSVCACARPCSLLISLFEKRQHGWGCCNSFTFEHVCSADAVRCLFFFVCDSPSSSLPPSLFTRHSPLLFSSCPFACPSSVHPQRQDNTRRRAEQPCAQALWIRRGINRIGNLLVPNDNYCWFEDFFTPVLESVQEAQRASRWKTHTAPSEFIEAMGAAIAKNHPDTCTSSLVYWCYRNGISVFSPAFTDGSMGDMIYFYNFSHKGLVVDPLEDVVRLRKLAAKEKGRNLAIVLGGGLPKHHLLRNVSMDAVVMVTTGLEADGCVSSGVLADDVACGLLREETETVRVQGDATVVFPLMLIAEKAATLEGAAA | not soluble
6 | MAHHHHHHMDAAWEAHIRLDPATDAAMRSNSGSRANSGGAGTPPVTLAPPEHPFNVMSFNTASAGCSIAHCGFLRGREEDFLREVVQRLQPSSSPSAARHLLYVITSANDVYVVDVKTEVVFLHWAGGASTSGCSSSSSEASASPLGAQFIVTQAETYGALMYLTVARRSSVKTATEQAASRGCHLFSGGGGPERNVYQRCNDPAVYVLHLGCTKPLAASTTKAFIAGGGAYVIQAVSKDKPHPTSKHSRSNAASATASAGALSIRAPSVGASAATAAERIGSAGVCRRRRRWGGDPEEGAADLLRCQRTPRPQPVIDAQFVPSAAVLVPCHGAGHSSSSCKWICRNVQILLVTPTRQQLLCTAGRRRNGRREQRGPL | not soluble
7 | MAHHHHHHMDEFRPDDTTQIEEGSESNAALLQLQDALVSALTASGTLGKIRAQLRATALALIRGDDELQNAAVGPFIRPRTLTTHAKVSLLLLHDFLQHYHLQQTAGVLDVESSVHLLFNERSVLLGDLARLPGDGSLLERLVRLYEPTRQIPAVGPSGATAVTTASQTSVSIPAAKLPASPVASSSSSASQEQTVAMAQPQDADVQYELDAYEDSIPFSDTEGTIDGNVHCDEVERLTQ | not soluble
8 | MAHHHHHHMDKQAERGQSAGPVKTPQGTQPPAHNYTYHTNAAQRAVYDYLKNVKPIPELAEPKTYKTYEEASVEAVLYPIIEKHQVIMVAGAFFGDEGKGKTVNAVANHPGCTFIARVNSGENAGHTVYDDAGRKFVFNLAPSGLLSKGKRNYVGPECVMDPISFMENEVKQLIEANVPYKEQLFIGNVSIVTPYHKLLDLLASAPNSSTLKGMAPIHASKVTKRGIRLDHIFNDQSVLRSRLRKDIDTYFGFLKVKGLSDADVLRRCEKENGDGVVRVPPYVVEFVQAEDKVEYLVKLYMDRVRNNKNFPARCDVAHELRSALSRGEKVMLEGPQSYWLSNAREKFWESTTSADTTASGLLATAQYNFQLYSSVVINVHKAPGSSRVGVGANPSSFVAQDYFSATGVKTLRDLPENMCVDFDSIQKLFFTKAFHPETKEYNGIWEPLEFEDSTGKYNIGVAMAVASSRQHGECGAVTKKPRVCGFFDCVLQYEVNAVQGPYLSISALDRGDDYDKLGVTIAYVYYNGKNDEVLNINGREYKNGDIIKAGEAVPGEVALYYCHPIVKLINGWKQTPIAASKRKPGDPLPRGVCEFLSTVEYFTKAKIISIGNGPRGKDIIYIKQ | not soluble
9 | MAHHHHHHMDPSVSLEGIVDLTASNFDEHVGKGVPALVEFYAPWCGHCKKMVPEFEKVGQAVKTARDKVLVGKVDATQNRDLAERFGVNGYPTILFFPADSQTKQQYSEAREAAAFLSFLNRQVPGLNIGVPHEHTYAVELTKRNFDAVVMDEAKDALVMFYAPWCGHCKKLHPVFERLATAFKEEADIVIGKLNADDASNGAVRNRYKVDGYPTLAFFQKRSKSEPQYYSGGRSLEELVEYVNERTGKNRLPSGDLSEKVGVNDELSKVLRDMMLKEKSVDEKKQYLEKVKKAAADLTGVEAVHYPRIAEKILQLGAEYVEMELGRIARLKQGDVKGEKRDMLTIRNNILASLKDE | not soluble
10 | MAHHHHHHMEDAQSGRASFSLRVPLCELLPKDSSLTDSPQNAVNLLYTICFSNTELKLRMKVTNTSEEQSAPFQFAFHTYFAVSDVSRTVVSGVNRSPFVDNCKARGNPDAPPSPPEQLWIIRGEHDRVYPDQACAIVLQDMGAKTTLQISSPNLSDVCLWNPGESKCAAMKDMPPDGYKHFVCVEHGKMLKKVVVPPCSSWTGTQEIAIIAESPHESSI | not soluble
11 | MAHHHHHHMEGEEKVELSQLELKLEELQVIWEDVQATCPATHSSKRRNSSDAVASPPRVRSTSGAAQRQGANTQEPLQLPSPQSKHPSLRLLHANNKGKLRCTNPVASEGAVLGGIVSVSPPHSPANASVGACPHGRDGGVRNCVPSRLPPLDASHAQELLKACSNCGVEQRRPTAQFCWNCGTRI | not soluble
12 | MAHHHHHHMELPFQWDDGNFISPFLTSGDDTLRVLAAWLNDSPLLRFQHGGALRLTDLGCGDGSALLSLSAGLFTLWGASGCRDVSPLQLTAVGLDLDEELILAARRRAEAIIVPPPHRLHCVFETVDVRQLDAAQYFPLSESSRHVLFVYLLPEGLEAIREKLLEIISRVALLVSNRWEVPFLARWKRVKLQNLHLYQYVGDGAN | not soluble

— the DeepSol protein solubility set
